The record followed here is patent publication US20210061911A1.

Usually Kd stands for the equilibrium constant for the complex coming apart. A higher Kd goes with weaker binding. What is called koff is the first-order rate constant of dissociation. The low end stands for slow dissociation, the high end for fast dissociation. As a reminder, the kon is a measure of how fast the partners come together. High values mean fast association, low ones slow association.

The target of test [1] is Cynomolgus CD3ε/δ (cynomolgus monkey) (UniProt Q95LI5). Briefly: kinetic binding analysis, method not given.
Another test concerns the target Human CD3ε/δ (human) (UniProt P07766). The test is described as follows: kinetic binding analysis, method not given.

Chain of Human CD3ε/δ (human) (P07766 23-126, stated change not applied, chain 1 of 2): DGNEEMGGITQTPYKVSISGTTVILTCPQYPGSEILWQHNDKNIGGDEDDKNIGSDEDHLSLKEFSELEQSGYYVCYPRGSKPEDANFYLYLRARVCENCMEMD
Chain of Human CD3ε/δ (human) (P04234 22-105, stated change not applied, chain 2 of 2, further chain): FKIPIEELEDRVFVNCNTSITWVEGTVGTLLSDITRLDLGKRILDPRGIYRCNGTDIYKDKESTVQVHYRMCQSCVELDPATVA
Chain of Cynomolgus CD3ε/δ (cynomolgus monkey) (Q95LI5 22-117, stated change not applied, chain 1 of 2): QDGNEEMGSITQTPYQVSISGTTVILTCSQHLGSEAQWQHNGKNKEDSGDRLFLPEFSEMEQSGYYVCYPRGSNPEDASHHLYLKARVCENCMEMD
Chain of Cynomolgus CD3ε/δ (cynomolgus monkey) (Q95LI8 22-105, stated change not applied, chain 2 of 2, further chain): as the sequence (P04234 22-105, stated change not applied, chain 2 of 2, further chain) above, with I5V, N15K, I20V, S32T, D33N, I34N, T64A, S74N, V83L counted along it

B1: DART-A, sequence-optimized CD123×CD3 bi-specific monovalent diabody (bispecific antibody)
chain 1: QAVVTQEPSLTVSPGGTVTLTCRSSTGAVTTSNYANWVQQKPGQAPRGLIGGTNKRAPWTPARFSGSLLGGKAALTITGAQAEDEADYYCALWYSNLWVFGGGTKLTVLGGGGSGGGGEVQLVQSGAELKKPGASVKVSCKASGYTFTDYYMKWVRQAPGQGLEWIGDIIPSNGATFYNQKFKGRVTITVDKSTSTAYMELSSLRSEDTAVYYCARSHLLRASWFAYWGQGTLVTVSSGGCGGGEVAALEKEVAALEKEVAALEKEVAALEK
chain 2: DFVMTQSPDSLAVSLGERVTMSCKSSQSLLNSGNQKNYLTWYQQKPGQPPKLLIYWASTRESGVPDRFSGSGSGTDFTLTISSLQAEDVAVYYCQNDYSYPYTFGQGTKLEIKGGGSGGGGEVQLVESGGGLVQPGGSLRLSCAASGFTFSTYAMNWVRQAPGKGLEWVGRIRSKYNNYATYYADSVKDRFTISRDDSKNSLYLQMNSLKTEDTAVYYCVRHGNFGNSYVSWFAYWGQGTLVTVSSGGCGGGKVAALKEKVAALKEKVAALKEKVAALKE
Consider B1, for which, in test [1], the Kd came to 9.2 nM, the dissociation rate constant (koff) stood at 0.005 s⁻¹ and the kon amounted to 550000 M⁻¹ s⁻¹. Further, in the test with Human CD3ε/δ (human), the Kd was determined as 9 nM, the koff was 0.005 s⁻¹ and the kon turned out to be 570000 M⁻¹ s⁻¹.
